Experimental data from US20140135474A1 (PROTELICA, published 2014).
Where a chain is given by its changes, count along the chain named.

Assays:
VEGF [1] = biological target: T1, VEGF (UniProt P15692-9 27-147, limits assumed); assay: ELISA with purified soluble 14FN3 variant, OD450, one concentration (not given)
T1 construct: Only the selection names the 121 isoform; also called VEGF(121)
T1 sequence (looked up): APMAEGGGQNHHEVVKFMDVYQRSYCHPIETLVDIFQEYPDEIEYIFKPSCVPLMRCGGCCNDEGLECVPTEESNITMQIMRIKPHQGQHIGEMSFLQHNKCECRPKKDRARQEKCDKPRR

HMGB1 [2] = biological target: T2, HMGB1 (UniProt P09429 1-215, limits assumed); assay: Octet BLI
T2 construct: also called biotinylated HMGB1
T2 sequence (looked up): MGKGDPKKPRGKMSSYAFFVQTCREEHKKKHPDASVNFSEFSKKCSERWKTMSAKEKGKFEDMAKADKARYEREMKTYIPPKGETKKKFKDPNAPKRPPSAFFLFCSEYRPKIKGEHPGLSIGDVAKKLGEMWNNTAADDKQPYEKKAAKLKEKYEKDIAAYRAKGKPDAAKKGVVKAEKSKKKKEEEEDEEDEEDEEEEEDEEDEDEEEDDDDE

HMGB1 [3] = biological target: T2, HMGB1; assay: competition ELISA: biotinylated HMGB1 pre-incubated with R2F8, then bound to immobilized RAGE (blocked ligand-receptor pair HMGB1/RAGE), detected with streptavidin-HRP and TMB
TNF-α [4] = biological target: T3, TNF-α (UniProt P01375 77-233, biotinylated); assay: ELISA (OD450); wells with HMGB1, TNF or blank
T3 construct: also called TNF-alpha; biotintylated TNF-α soluble protein

TNF-α [5] = biological target: T3, TNF-α; assay: phage ELISA; wells with TNF, control or VEGF
Protocol: (§1) After the third and fourth rounds of selection, a total of 373 clones were analyzed for TNF-α binding using phage ELISA. Briefly, phage from individual clones was produced by co-infection with M13K07 helper phage in 1 ml cultures in 96-deep well blocks. Phage-containing culture supernatants were then added to microtiter plates coated with the target protein. Following washes with PBS-0.1% Tween-20, bound phage was detected with a mouse anti-M13 antibody horseradish peroxidase conjugate (GE Biosciences) and TMB substrate (Pierce). Positive variants were then screened for binding specificity against VEG-F and nuetravidin plate only.

VEGF [6] = biological target: T1, VEGF; assay: phage ELISA; wells with TNF, control or VEGF
Protocol: as §1

VEGF [7] = biological target: T1, VEGF; assay: Octet BLI, soluble protein
TNF-α [8] = biological target: T3, TNF-α; assay: phage ELISA (OD450); wells with VEGF, TNF alfa or 2%MPBS only
TNF-α [9] = biological target: T3, TNF-α; assay: Octet BLI, biotinylated TNF-α on streptavidin tips; upper end of the range
Protocol: (§2) The target protein was biotintylated TNF-α soluble protein (R&D Systems) and is at a concentration of 0.25 ug/ml for loading onto the streptavidin sensor tips. […] The Octet was run using the manufacturers protocol for Basic Kinetic Assay.

TNF-α [10] = biological target: T3, TNF-α; assay: Octet BLI, biotinylated TNF-α on streptavidin tips; lower end of the range
Protocol: as §2

TNF-α [11] = biological target: T3, TNF-α; assay: Octet BLI, biotinylated TNF-α on streptavidin tips
Protocol: as §2

VEGF [12] = biological target: T1, VEGF; assay: phage ELISA
TNF-α [13] = biological target: T3, TNF-α; assay: phage display selection and ELISA

T3 sequence (P01375 77-233 limits assumed): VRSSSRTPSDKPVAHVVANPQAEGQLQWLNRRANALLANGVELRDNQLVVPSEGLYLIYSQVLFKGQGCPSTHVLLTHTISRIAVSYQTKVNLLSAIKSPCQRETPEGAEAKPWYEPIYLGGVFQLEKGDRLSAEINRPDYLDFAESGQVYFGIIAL

B1: TNF-α binder R42C10 (designed binder)
chain: NVSPPRRARVTDATETTITISWYHHEDDCYYHFYYFQVDAVPANGQTPIQRTILHGTYTSYTITGLQPGTDYKIYLYTLNASGFCSHSYKPVVIDAST
notes: 14FN3 variant; on phage in phage ELISA, soluble 6xHis-tagged in ELISA; The short label C10 is tied to R42C10 by its name only
Q: Does B1 bind (VEGF [1])?
A: Result: no binding

B2: P1E8 anti-HMGB1 (designed binder)
chain: NVSPPRRARVTDATETTITISWRAAESAIARFQVDAVPANGQTPIQRTIKRTKHTYTITGLQPGTDYKIYLYTLNDNARSSPVVIDAST
notes: 14FN3 variant; on phage in phage ELISA, soluble 6xHis-tagged in Octet
Q: How did the Kd (HMGB1 [2]) turn out when B2 was run?
A: The Kd was 0.192 µM.

Q: And the koff (HMGB1 [2])?
A: The koff was 0.000325 s⁻¹.

Q: What about the kon (HMGB1 [2]) of the same binder?
A: The kon was 1690 M⁻¹ s⁻¹.

B3: P2C6 anti-HMGB1 (designed binder)
chain: B2 chain with S21R, R23G, A24V, E26P, A28Q, I29V, A30I, T52S, K53V, T55A
notes: as for B2
Q: B3 was tested. Which Kd (HMGB1 [2]) did it give?
A: Its Kd is 0.104 µM.

Q: And the koff (HMGB1 [2])?
A: Its koff is 0.000991 s⁻¹.

Q: What about the kon (HMGB1 [2]) of the same binder?
A: Its kon is 9540 M⁻¹ s⁻¹.

B4: R2F8 anti-HMGB1 (designed binder)
chain: B2 chain with S21R, R23A, A24R, A25S, E26A, A28E, T52S, K53A, H54N, T55I
notes: 14FN3 variant; also called R2F8 HMGB1 FN3
Q: Which results are given for B4?
A: Kd (HMGB1 [2]): 0.0353 µM; koff (HMGB1 [2]): 0.000267 s⁻¹; kon (HMGB1 [2]): 7580 M⁻¹ s⁻¹; IC50 (read off the curve) (HMGB1 [3]): ~8 mg/L

B5: R2E6 anti-HMGB1 (designed binder)
chain: B2 chain with S21R, R23G, A24V, E26Q, A28Q, I29V, T52S, K53V
notes: as for B2
Q: Which results are given for B5?
A: Kd (HMGB1 [2]): 0.189 µM; koff (HMGB1 [2]): 0.000955 s⁻¹; kon (HMGB1 [2]): 5040 M⁻¹ s⁻¹; binding result (TNF-α [4]): no binding

B6: R2D4 anti-HMGB1 (designed binder)
chain: B2 chain with R23G, A24V, A28E, I29V, A30T, T52S, T55A
notes: as for B2
Q: Which results are given for B6?
A: Kd (HMGB1 [2]): 0.159 µM; koff (HMGB1 [2]): 0.000206 s⁻¹; kon (HMGB1 [2]): 1300 M⁻¹ s⁻¹; binding result (TNF-α [4]): no binding

B7: R2B5 anti-HMGB1 (designed binder)
chain: B2 chain with S21R, R23T, A24V, A28K, T52S, T55S
notes: as for B2
Q: For B7, which Kd (HMGB1 [2]) is on record?
A: Its Kd is 0.0658 µM.

Q: What about the koff (HMGB1 [2]) of the same binder?
A: The koff was 0.000287 s⁻¹.

Q: And the kon (HMGB1 [2])?
A: Its kon is 4350 M⁻¹ s⁻¹.

B8: R2G2 anti-HMGB1 (designed binder)
chain: B2 chain
notes: as for B2
Q: Which results are given for B8?
A: Kd (HMGB1 [2]): 0.266 µM; koff (HMGB1 [2]): 0.00049 s⁻¹; kon (HMGB1 [2]): 1840 M⁻¹ s⁻¹; binding result (TNF-α [4]): no binding

B9: TNF-α binder R4E9 (designed binder)
chain: NVSPPRRARVTDATETTITISWESYYYDCCYYIYYFQVDAVPANGQTPIQRTIYYPYTSYTITGLQPGTDYKIYLYTLNSYGYGYHYYKPVVIDAST
Q: What does the source list for B9?
A: binding result (TNF-α [5]): binds; binding result (VEGF [6]): no binding

B10: TNF-α binder R4F7 (designed binder)
chain: NVSPPRRARVTDATETTITISWYPYEYDDCYYYIYYFQVDAVPANGQTPIQRTIPDYESYYTITGLQPGTDYKIYLYTLNSYGFCPPSYKPVVIDAST
Q: Does B10 bind (TNF-α [5])?
A: Result: binds

Q: Does B10 bind (VEGF [6])?
A: Result: no binding

B11: R1 D4 anti-VEGF (designed binder)
chain: NVSPPRRARVTDATETTITIPWEVAGGPIISFQVDAVPANGQTPIQRTITPDATGYTITGLQPGTDYKIYLYTLNDNARSSPVVIDAST
notes: 14FN3 variant; on phage in phage ELISA, soluble His-tagged protein in Octet
Q: B11 was tested. Which koff (VEGF [7]) did it give?
A: The koff was 0.00017 s⁻¹.

Q: Does B11 bind (TNF-α [8])?
A: Result: no binding

B12: R1 F1 anti-VEGF (designed binder)
chain: B11 chain with E23A, V24L, A53I, T54R
Q: Does B12 bind (TNF-α [8])?
A: Result: no binding

B13: TNF-α binder R4C5 (designed binder)
chain: NVSPPRRARVTDATETTITISWNSSYCHFYGFQVDAVPANGQTPIQRTISDYEYSYTITGLQPGTDYKIYLYTLNASCYGYHYYKPVVIDAST
notes: 14FN3 variant; on phage in phage ELISA, soluble 6xHis-tagged in ELISA; The short label C5 is tied to R4C5 by its name only
Q: Does B13 bind (VEGF [1])?
A: Result: no binding

B14: TNF-α binder R41A6 (designed binder)
chain: NVSPPRRARVTDATETTITISWEHSEDDCYSYIYYFQVDAVPANGQTPIQRTISGYETYYTITGLQPGTDYKIYLYTLNSAGFCPPYSKPVVIDAST
notes: 14FN3 variant; On phage (p3 fusion) in phage ELISA; soluble with 6xHis tag (phagemid also c-myc tag; pET-20b C-terminal hexahistidine) in ELISA and Octet
Q: Does B14 bind (VEGF [1])?
A: Result: no binding

Q: And the Kd (TNF-α [9])?
A: Its Kd is ≤ 0.1 µM.

Q: What about the Kd (TNF-α [10]) of the same binder?
A: Its Kd is ≥ 0.02 µM.

B15: A6+Fc (Fc fusion)
chain: B14 chain
notes: Expressed in E. coli BL-21(DE3); also called R41A6 Fc fusion protein; pET-20b+TNF A6+Fc #39; not shown: C-terminal hexahistidine tag of pET-20b
Q: B15 was tested. Which Kd (TNF-α [11]) did it give?
A: The Kd was 0.012 to 0.025 µM.

Q: What about the “fold improvement of Koff against monomeric A6” value (TNF-α [11]) of the same binder?
A: The value was 2 fold.

B16: TNF-α binder R4A8 (designed binder)
chain: B14 chain with E23Y, H24P, D28Y, Y30G, Y32S, Y35G, S54H, Y56N, Y59S
Q: Does B16 bind (TNF-α [5])?
A: Result: binds

Q: Does B16 bind (VEGF [6])?
A: Result: no binding

B17: TNF-α binder R4G4 (designed binder)
chain: B14 chain with H24P, D27Y, S31Y, Y32S, S54H, G55D, Y56S, E57Y, T58N
Q: Does B17 bind (TNF-α [5])?
A: Result: binds

Q: Does B17 bind (VEGF [6])?
A: Result: no binding

B18: R1G1 anti-VEGF (designed binder)
chain: NVSPPRRARVTDATETTITIRWAGSPGPVDSFQVDAVPANGQTPIQRTIQTSETGYTITGLQPGTDYKIYLYTLNDNARSSPVVIDAST
Q: Does B18 bind (TNF-α [8])?
A: Result: no binding

B19: P2F3 anti-HMGB1 (designed binder)
chain: NVSPPRRARVTDATETTITIRWGVPHSFQVDAVPANGQTPIQRTIKRGVRSYTITGLQPGTDYKIYLYTLNDNARSSPVVIDAST
notes: as for B2
Q: B19 was tested. Which koff (HMGB1 [2]) did it give?
A: The koff was 0.000271 s⁻¹.

B20: TNF-α binder A4A9 (designed binder)
chain: NVSPPRRARVTDATETTITISWYPYYDDCGYYISYFQVDAVPANGQTPIQRTIPDSYSSYTITGLQPGTDYKIYLYTLNDADDGHPYSKPVVIDAST
Q: Does B20 bind (TNF-α [5])?
A: Result: binds

Q: Does B20 bind (VEGF [6])?
A: Result: no binding

B21: TNF-α binder R3A10 (designed binder)
chain: NVSPPRRARVTDATETTITISWYPYYYYCGYHYSYFQVDAVPANGQTPIQRTIYGYYTYYTITGLQPGTDYKIYLYTLNSSDYCYYSYYPVVIDAST
Q: What does the source list for B21?
A: binding result (VEGF [12]): no binding; binding result (TNF-α [13]): binds
